Measured values: patent CN110305214A

B1: W3452-1.164.16-z11-IgG1K (antibody, V domains shown)
VH: QVQLQESGPGLVKPSETLSLTCTVSGFSLTNYHVYWIRQPPGKGLEWIGVMWNHGDTSYNSPLKSRVTISVDTSKSQFSLKLSSVTAADTAVYYCARGGYVPDYWGQGTMVTVSS
VL: DIVMTQSPLSLPVTPGEPASISCRSSQSLVHSNAKTYLHWYLQKPGQSPQLLIYRVSNRFSGVPDRFSGSGSGTDFTLKISRVEAEDVGVYYCLQTTHFPYTFGQGTKLEIK
B2: W3452-2.683.2-z27-IgG1L (antibody, V domains shown)
VH: EVQLVESGGGLVQPGRSLRLSCAASGFTFSTYGMAWVRQAPGKGLEWVSSISTSGGSTYYRDSVQGRFTISRDNAKSSLYLQMNSLRAEDTATYYCTTKGGRTYRLAYWGQGTLVTVSS
VL: SYELMQPPSVSVSPGQTARITCSGIELSNKYAHWYQQKPGQAPVEVMYKDSERPSGIPERFSGSRSGTTVTLTISGVQAEDEADYYCLSTNSDDDLPVFGGGTKLTVL
B3: W3452-2.683.2-z27-IgG4PE,L (antibody, V domains shown)
VH: B2 VH
VL: B2 VL

Target: 人CD47 (human CD47) (human) (UniProt Q08722)
Chain of UniProt Q08722 (Q08722 19-323): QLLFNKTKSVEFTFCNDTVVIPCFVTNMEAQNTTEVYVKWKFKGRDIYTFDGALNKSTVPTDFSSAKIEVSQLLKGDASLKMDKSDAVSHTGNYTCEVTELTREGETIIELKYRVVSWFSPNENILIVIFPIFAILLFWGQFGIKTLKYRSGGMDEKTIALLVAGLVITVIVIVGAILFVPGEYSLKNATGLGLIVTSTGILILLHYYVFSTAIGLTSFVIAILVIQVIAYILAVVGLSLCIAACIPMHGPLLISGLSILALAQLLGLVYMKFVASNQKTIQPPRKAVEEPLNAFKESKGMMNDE
Test: FACS competition on CHOK1 cells stably transfected with human CD47; competitor 1 μg/ml human SIRPα-His

Binder | 阻断率 [%]
B1 | > 90
B2 | > 90
B3 | > 90
